Test results: US20250250593A1, “METHOD FOR PREPARING ALPHA-BRANCHED BETA'-HYDROXY CARBONYL COMPOUNDS BY ENZYMATIC-CATALYZED REDUCTIVE ALDOL REACTION” (Max-Planck-Gesellschaft zur Förderung der Wissenschaften …, priority 2022, published 2025)
Residue numbers refer to the chain shown, from its start.

T1: Kitasatospora setae crotonyl-CoA carboxylase/reductase (KsCcr) variant His365Asn (H365N), SEQ ID NO: 19 (Kitasatospora setae, UniProt E4N096, H365N)
T1 construct: gene provided by JGI
T1 sequence (E4N096 1-445 H365N): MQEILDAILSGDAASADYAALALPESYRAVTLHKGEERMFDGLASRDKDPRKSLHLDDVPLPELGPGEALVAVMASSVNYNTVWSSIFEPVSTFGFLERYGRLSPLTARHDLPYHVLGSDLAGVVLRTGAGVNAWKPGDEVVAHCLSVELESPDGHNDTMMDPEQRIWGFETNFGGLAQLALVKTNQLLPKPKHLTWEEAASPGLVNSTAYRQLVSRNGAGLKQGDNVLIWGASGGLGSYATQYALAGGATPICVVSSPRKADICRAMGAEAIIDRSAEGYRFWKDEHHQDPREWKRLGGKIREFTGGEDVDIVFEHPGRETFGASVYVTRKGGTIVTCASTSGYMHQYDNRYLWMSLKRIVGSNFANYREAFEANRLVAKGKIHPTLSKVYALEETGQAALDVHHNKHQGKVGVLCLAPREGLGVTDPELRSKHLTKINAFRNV

B1: KsCcr variant His365Asn: KsCcr active site variant His365Asn, SEQ ID NO: 19 (protein)
chain: T1 sequence (E4N096 1-445 H365N)
modifications: KsCcr variant His365Asn
B2: KsCcr variant Asn81Asp: KsCcr active site variant Asn81Asp, no SEQ ID given (protein)
chain: T1 sequence (E4N096 1-445 H365N) with N81D, N365H
B3: KsCcr variant Phe170Ala: KsCcr variant Phe170Ala, SEQ ID NO: 23 (protein)
chain: T1 sequence (E4N096 1-445 H365N) with F170A, N365H
modifications: KsCcr variant Phe170Ala
B4: KsCcr WT: wild type crotonyl-CoA carboxylase/reductase obtained from Kitasatospora setae, SEQ ID NO: 1 (protein)
chain: T1 sequence (E4N096 1-445 H365N) with N365H
modifications: Kitasatospora setae KsCCR crotonyl-CoA carboxylase/reductase
B5: KsCcr variant Asn81Leu: KsCcr active site variant Asn81Leu, SEQ ID NO: 20 (protein)
chain: T1 sequence (E4N096 1-445 H365N) with N81L, N365H
modifications: KsCcr variant Asn81Leu
B6: KsCcr variant Ser119Ala: KsCcr variant Ser119Ala, SEQ ID NO: 22 (protein)
chain: T1 sequence (E4N096 1-445 H365N) with S119A, N365H
modifications: KsCcr variant Ser119Ala
B7: KsCcr variant Glu171Ala: KsCcr variant Glu171Ala, SEQ ID NO: 24 (protein)
chain: T1 sequence (E4N096 1-445 H365N) with E171A, N365H
modifications: KsCcr variant Glu171Ala
B8: KsCcr variant Thr82Asp: KsCcr variant Thr82Asp, SEQ ID NO: 21 (protein)
chain: T1 sequence (E4N096 1-445 H365N) with T82D, N365H
modifications: KsCcr variant Thr82Asp

Experiments:
[1] = target: T1, Kitasatospora setae crotonyl-CoA carboxylase/reductase (KsCcr) variant His365Asn (H365N), SEQ ID NO: 19; experiment: Steady-state kinetics of the reductive aldol reaction (crotonyl-CoA + formaldehyde + NADPH); type: biochemical
Experimental: His-tagged KsCcr and its variants were expressed in E. coli BL21 (DE3). Cells in terrific broth were grown at 37° C. to an OD600=0.8-1.0 upon which expression for 12-16 h at 23° C. was induced by the addition of 500 μM IPTG (Isopropyl-D-β-thiogalactopyranoside). Cells were harvested for 15 min at 7500× g at 4° C. then resuspended in 2 mL of buffer A (50 mM Tris, 500 mM NaCl, 1 M L-Proline, pH=7.5) per gram of pellet. The suspension was treated with […] of DNAse I, 5 mM MgCl2, 10 μg/ml of lysozyme and incubated on ice for 20 min upon which cells were lysed using a sonicator. The lysate was clarified at 45000× g at 4° C. for 40 min and then loaded onto a pre-equilibrated 1 mL HisTrap FF column and washed with 15% buffer B (50 mM Tris, 500 mM NaCl, 1 M L-Proline, 500 mM imidazole, pH=7.5) for 20-30 column volumes until the UV 280 nm reached the baseline level. […]
Formaldehyde stock solution concentration was determined by following the formation of phenylhydrazone at 368 nm (εPhenylhydrazone,368 nm=6.1 mM^−1 cm^−1). […]
For reactions in which the full conversion to the aldol product was achieved assays were performed on a Cary-60 UV/Vis spectrophotometer (Agilent) at 30° C. using quartz cuvettes (1 mm, 3 mm or 10 mm path length; Hellma). […] Kinetic parameters for one substrate were determined by varying its concentration while the others were kept constant at 10 times their KM value.

KsCcr [2] = experiment: HPLC analysis of reaction products: 2-HMB-CoA formed over total products from crotonyl-CoA and formaldehyde; type: biochemical, Kitasatospora setae; conditions: for Ratio of 2-HMB-CoA formed over total products: triplicates, mean ± standard deviation, values given as %
From the text: KsCcr wild-type (WT) natively promotes the NADPH-dependent reductive carboxylation of crotonyl-CoA into ethylmalonyl-CoA. […] Under these conditions, neither ethylmalonyl-CoA (carboxylation product) nor butyryl-CoA (reduction side product) were detected with LC-MS (see Table 2 further below). […] The compound was isolated and its structure was further verified using 2-dimensional NMR and high-resolution MS experiments. […] The newly introduced carbon was also observed in the ^13C-NMR experiment, confirming formation of aldol product 2-HMB-CoA by KsCcr.
The reaction was diluted 10 times into 5% methanol/Buffer 8.1 and analyzed by HPLC over an Agilent Eclipse Plus C18, 3.5 μm 100 Å, 100×2.1 mm, […] column using 5% to 30% acetonitrile gradient over 7.5 min with 25 mM ammonium formate pH=8.1 as the aqueous phase.

KsCcr [3] = experiment: Native reductive carboxylation of crotonyl-CoA with CO2; type: biochemical, Kitasatospora setae; conditions: CO2 as electrophile
KsCcr [4] = experiment: Reductive aldol reaction with longer chain aldehydes (acetaldehyde, propionaldehyde): product share and diastereomeric ratio by LC-MS; type: biochemical, Kitasatospora setae
Experimental: The reaction catalyzed by KsCcr generates an (S)-configured stereocenter at the α-position of the reaction product. When using higher substituted aldehydes, a second stereocenter would be generated at the β-position, which would be highly interesting for synthetic organic applications. It was first tested, whether KsCcr would accept longer chain aldehydes. Indeed, in the presence of 500 mM acetaldehyde, the enzyme formed 35% of 2-ethyl-3-hydroxybutyryl-CoA (2-EHB-CoA) over total products, with substantial amounts of butyryl-CoA as a side product. To improve yield, an acyl-CoA oxidase was used to continually recycle the side product butyryl-CoA back into the substrate crotonyl-CoA. With this proof-reading strategy the yield of the reaction could be increased up to 72%. High resolution mass spectrometry together with ^1H^−1H COSY and ^13C-NMR experiments confirmed the structure of 2-EHB-CoA.
To determine the stereochemistry at the β-position the reaction was analyzed by LC-MS and compared the retention times to chemically synthesized (2S,3R)-EHB-CoA and (2S,3S)-EHB-CoA standards.
Determination of CoA esters was performed using a HRES-LC-MS. The chromatographic separation was performed on an Thermo Scientific Vanquish HPLC System using a Kinetex Evo C18 column ([…], 100 Å, 1.7 μm, Phenomenexc) equipped with a 20×2.1 mm guard column of similar specificity at a constant eluent flow rate of 0.3 mL/min and a column temperature of 40° C. with eluent A being 50 mM ammonium formate pH=8.1 and eluent B being MeOH (Honeywell) The injection volume was 1 μl. […]
Target sequence in this assay (as listed by the source): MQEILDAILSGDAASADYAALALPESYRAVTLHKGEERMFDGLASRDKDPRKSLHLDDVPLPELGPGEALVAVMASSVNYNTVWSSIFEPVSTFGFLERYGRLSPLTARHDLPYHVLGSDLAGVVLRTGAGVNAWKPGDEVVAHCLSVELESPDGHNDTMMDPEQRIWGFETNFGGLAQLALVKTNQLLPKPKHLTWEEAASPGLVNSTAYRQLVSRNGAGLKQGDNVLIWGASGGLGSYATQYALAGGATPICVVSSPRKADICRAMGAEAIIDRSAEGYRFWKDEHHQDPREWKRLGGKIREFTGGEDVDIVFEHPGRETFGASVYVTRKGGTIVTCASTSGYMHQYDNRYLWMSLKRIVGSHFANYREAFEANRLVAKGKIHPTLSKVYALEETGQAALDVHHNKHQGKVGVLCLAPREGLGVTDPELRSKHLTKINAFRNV

Molecule | Ratio of 2-HMB-CoA formed over total products (KsCcr [2]; 5 mM formaldehyde) | 2-HMB-CoA produced (reductive aldol product) (KsCcr [2]; 75 mM formaldehyde) | Ratio of 2-HMB-CoA formed over total products (KsCcr [2]; 75 mM formaldehyde) | also measured
C=O [formaldehyde] |  |  |  | apparent catalytic rate relative to WT enzyme ([1]; decreased to % of the WT enzyme): 10%; apparent KM for formaldehyde, increase compared to WT ([1]; fold increase compared to WT): two-fold
B1 | 42 ± 1 | 89% | 89 ± 0 | 
B2 | 1 ± 0 |  | 11 ± 0 | 
B3 | 17 ± 0 | up to 64% | 64 ± 0 | reductive carboxylation (KsCcr [3]): 17%
B4 | 72 ± 1± |  | 96 ± 0 | yield of the reaction (2-EHB-CoA) (KsCcr [4]; 500 mM acetaldehyde with acyl-CoA oxidase recycling butyryl-CoA to crotonyl-CoA (proof-reading)): up to 72%; 2-ethyl-3-hydroxybutyryl-CoA (2-EHB-CoA) over total products (KsCcr [4]; 500 mM acetaldehyde, butyryl-CoA as side product): 35%; conversion with propionaldehyde (KsCcr [4]; compared with formaldehyde or acetaldehyde, product detected by MS): strongly decreased; aldol product generated (KsCcr [2]; ambient conditions, CO2 not strictly avoided): > 95%
B5 | 35 ± 0 | up to 64% | 64 ± 2 | carboxylation of crotonyl-CoA (KsCcr [3]; C2-ene adduct accumulates): completely impaired
B6 | 37 ± 3 | 83% | 83 ± 0 | 
B7 | 43 ± 0 |  | 89 ± 0 | 
B8 | 14 ± 1 | 57% | 57 ± 1 | 
